Data: US20120189540A1 (STEMLINE THERAPEUTICS, published 2012)
Numbering of substitutions follows the chain as printed.

Legend:
[1] = target: transferrin receptor (human) (UniProt P02786); assay: cell-based or functional assay
[2] = target: IL-3 receptor alpha subunit (IL3Rα, CD123) (human) (UniProt P26951); assay: flow cytometry on ML-1 cells, isotype control-PE at 10 µg/ml [panel ML-1 (1900/cell]
[3] = target: T1, IL-3 receptor alpha subunit (IL3Rα, CD123) (human, UniProt P26951 19-378); assay: flow cytometry on TF-1 cells (CD123-expressing), mAb at 0.5 µg/ml, detected with R-PE goat F(ab')2 anti-mouse IgG, MOPC-21 isotype control subtracted [panel A]
T1 construct: whole, on cells; also called IL3Rα chain; alpha subunit of the IL-3 receptor
T1 sequence (P26951 19-378): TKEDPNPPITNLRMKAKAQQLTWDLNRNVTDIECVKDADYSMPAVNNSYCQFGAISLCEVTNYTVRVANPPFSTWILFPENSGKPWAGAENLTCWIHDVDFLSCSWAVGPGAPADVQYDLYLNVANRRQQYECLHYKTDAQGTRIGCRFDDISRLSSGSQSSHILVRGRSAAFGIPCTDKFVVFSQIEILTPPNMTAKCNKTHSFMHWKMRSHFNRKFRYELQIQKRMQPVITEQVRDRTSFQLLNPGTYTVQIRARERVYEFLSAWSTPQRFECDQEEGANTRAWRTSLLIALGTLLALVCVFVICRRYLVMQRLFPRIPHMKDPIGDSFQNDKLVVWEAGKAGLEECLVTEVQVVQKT

transferrin receptor (human), sequence (P02786 whole entry): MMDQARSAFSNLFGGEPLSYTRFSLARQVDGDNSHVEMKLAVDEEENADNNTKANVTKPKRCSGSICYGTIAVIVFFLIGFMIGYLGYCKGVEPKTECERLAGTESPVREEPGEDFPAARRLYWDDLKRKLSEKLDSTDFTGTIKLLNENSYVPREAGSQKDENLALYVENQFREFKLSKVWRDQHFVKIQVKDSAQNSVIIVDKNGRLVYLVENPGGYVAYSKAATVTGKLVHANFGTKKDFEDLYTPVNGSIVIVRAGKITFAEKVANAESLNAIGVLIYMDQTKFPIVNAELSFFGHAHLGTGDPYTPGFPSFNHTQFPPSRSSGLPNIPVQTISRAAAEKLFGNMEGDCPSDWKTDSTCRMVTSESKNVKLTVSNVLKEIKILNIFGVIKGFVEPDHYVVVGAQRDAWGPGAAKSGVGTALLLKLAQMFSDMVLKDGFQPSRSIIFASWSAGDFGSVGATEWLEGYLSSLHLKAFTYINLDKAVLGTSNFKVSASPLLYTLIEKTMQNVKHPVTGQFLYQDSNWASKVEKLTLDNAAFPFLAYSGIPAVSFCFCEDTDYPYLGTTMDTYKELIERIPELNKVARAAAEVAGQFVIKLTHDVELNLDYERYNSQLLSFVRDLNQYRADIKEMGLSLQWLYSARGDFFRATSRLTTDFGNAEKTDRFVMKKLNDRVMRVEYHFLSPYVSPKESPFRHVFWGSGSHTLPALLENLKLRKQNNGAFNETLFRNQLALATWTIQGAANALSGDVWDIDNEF
IL-3 receptor alpha subunit (IL3Rα, CD123) (human), sequence (P26951 19-378): as the sequence (P26951 19-378) above

Molecule: HB21(Fv)-PE40 (scFv)
- IC50(ng/ml), cytotoxicity (WST-8 cell viability) on ML-1 [1]: 5.2 ng/mL
- IC50(ng/ml), cytotoxicity (WST-8 cell viability) on Molm-14 [1]: 60 ng/mL
- IC50(ng/ml), cytotoxicity (WST-8 cell viability) on TF-1 [1]: 2.2 ng/mL

Molecule: isotype control-PE (antibody)
- number printed beside the histogram (fluorescence on the FL-2:PE axis, not named on the sheet) [2]: 7.1

B1: monoclonal antibody 32701 (antibody, V domains shown)
VH: QIQLVQSGPELKKPGETVKISCKTSGYVFTNYGMNWVKQAPGKGFKWMGWMNTNTGEPTSLEDFKGRFAFSLETSASTAYLQINNLKNDDTATYFCARSGGYDPMDYWGQGTSVTVSS
VL: DIVLTQSPASLAVSPGQRATISCRASESVDNYGNTFMHWYQQKPGQPPKLLIYRASNLESGIPARFSGSDSRTDFTLTINPVEADDVATYYCQQSKEDPPTFGAGTKLELK
- binding result [3]: binds

B2: monoclonal antibody 32716 (antibody, V domains shown)
VH: QIQLVQSGPELKKPGETVKISCKASGYIFTNYGMNWVKQAPGKSFKWMGWINTYTGESTYSADFKGRFAFSLETSASTAYLHINDLKNEDTATYFCARSGGYDPMDYWGQGTSVTVSS
VL: B1 VL with P15L, D70G, K96N
- binding result [3]: binds

B3: monoclonal antibody 26292 (antibody, V domains shown)
VH: QVQLQQPGAELVRPGASVKLSCKASGYTFTSYWMNWVKQRPDQGLEWIGRIDPYDSETHYNQKFKDKAILTVDKSSSTAYMQLSSLTSEDSAVYYCARGNWDDYWGQGTTLTVSS
VL: DVQITQSPSYLAASPGETITINCRASKSISKDLAWYQEKPGKTNKLLIYSGSTLQSGIPSRFSGSGSGTDFTLTISSLEPEDFAMYYCQQHNKYPYTFGGGTKLEIK
- binding result [3]: binds
